From patent US20050250700A1 come the findings set out here.

Bridge positions count the residues as written; N and C are the ends. Side chains are listed from the residue outwards. * marks the point of attachment. Biotin = O=C1N[C@H]2[C@H](CS[C@H]2CCCCC(=O)*)N1; AEEA = NCCOCCOCC(=O)O

For experiment [1], the target named is KDR (VEGFR-2), full-length receptor on cells (human), P35968. The experiment is described as follows: competitor 125I-VEGF (300 pM) on KDR-transfected 293H cells; peptide 30 µM. The note with it: remark: other sources report otherwise.
Sequence of KDR (VEGFR-2), full-length receptor on cells (human), P35968 (P35968 20-1356): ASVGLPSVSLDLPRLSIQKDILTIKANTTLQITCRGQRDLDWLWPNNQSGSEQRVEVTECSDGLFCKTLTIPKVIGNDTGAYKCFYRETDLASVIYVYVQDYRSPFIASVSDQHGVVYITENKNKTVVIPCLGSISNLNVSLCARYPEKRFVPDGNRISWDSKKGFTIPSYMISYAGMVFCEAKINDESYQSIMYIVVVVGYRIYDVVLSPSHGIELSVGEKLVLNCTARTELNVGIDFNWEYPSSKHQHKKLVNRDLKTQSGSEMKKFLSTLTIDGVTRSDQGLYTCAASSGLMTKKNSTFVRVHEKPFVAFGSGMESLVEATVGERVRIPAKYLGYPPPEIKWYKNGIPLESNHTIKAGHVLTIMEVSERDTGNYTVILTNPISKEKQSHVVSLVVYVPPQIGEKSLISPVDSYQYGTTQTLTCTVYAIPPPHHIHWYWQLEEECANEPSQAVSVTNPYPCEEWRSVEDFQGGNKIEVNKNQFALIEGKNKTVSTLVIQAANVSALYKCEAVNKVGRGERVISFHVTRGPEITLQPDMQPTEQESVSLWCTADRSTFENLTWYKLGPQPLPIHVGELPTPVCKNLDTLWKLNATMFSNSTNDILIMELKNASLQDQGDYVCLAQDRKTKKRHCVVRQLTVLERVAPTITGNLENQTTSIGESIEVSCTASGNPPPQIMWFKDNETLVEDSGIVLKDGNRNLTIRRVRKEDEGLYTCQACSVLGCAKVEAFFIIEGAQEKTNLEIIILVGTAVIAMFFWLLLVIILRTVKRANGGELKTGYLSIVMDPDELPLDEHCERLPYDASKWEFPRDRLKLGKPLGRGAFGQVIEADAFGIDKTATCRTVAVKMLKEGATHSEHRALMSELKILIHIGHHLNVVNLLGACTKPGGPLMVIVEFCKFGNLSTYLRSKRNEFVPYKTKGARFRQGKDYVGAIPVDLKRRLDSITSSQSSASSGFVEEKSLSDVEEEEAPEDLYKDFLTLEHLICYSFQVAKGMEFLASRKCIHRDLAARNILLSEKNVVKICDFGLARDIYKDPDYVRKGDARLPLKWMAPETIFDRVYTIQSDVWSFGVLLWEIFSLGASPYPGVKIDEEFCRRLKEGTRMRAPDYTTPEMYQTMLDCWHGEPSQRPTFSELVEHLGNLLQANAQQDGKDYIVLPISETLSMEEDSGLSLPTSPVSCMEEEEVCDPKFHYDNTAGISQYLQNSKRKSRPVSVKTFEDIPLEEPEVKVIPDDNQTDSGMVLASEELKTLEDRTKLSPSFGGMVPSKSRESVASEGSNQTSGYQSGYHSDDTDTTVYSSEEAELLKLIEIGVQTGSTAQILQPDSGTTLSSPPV
Experiment [2] shares this target. The experiment is described as follows: competitor 125I-VEGF (300 pM) on KDR-transfected 293H cells; peptide 0.3 µM. The note with it: remark: other sources report otherwise.

B1: biotinylated SEQ ID NO:264 with a JJ spacer (peptide)
peptide: Ac-AGPKWCEEDWYYCMITGTGGGK([AEEA-AEEA-Biotin])-NH2
modifications: disulfide 6-13 (inferred)
On to B1, for which the % inhibition of 125I-labeled VEGF binding in experiment [1] turned out to be 48%; in experiment [2], 24.4%.
